Drawing on US20250191685, this text covers binding signal (% of unmodified) for one substance.

This data set relates to KLF6 RTF CDKN1C #200, 8 phosphate-contact R to Q 8 phosphate-contacting Arg to Gln (Homo sapiens). The data set is described as follows: cell_activity. The settings on record: on-target activity reduced by only 12%; only CDKN1C upregulated in RNA-seq.

Substance CDKN1C promoter site #200 came in with a binding signal (% of unmodified) of 88.
